Test results as given in PMC4203850, “Conformational Antibody Binding to a Native, Cell-Free Expressed GPCR in Block Copolymer Membranes” (PLoS ONE, 2014).

Target: T1, radiolabeled (I-125) SDF-1α (stromal cell-derived factor-1 alpha) (UniProt P48061-2 22-89, 125I radiolabel (position not given))
T1 construct: SDF-1α (stromal cell-derived factor-1 alpha), the natural ligand of CXCR4; the alpha isoform
Assay: radioligand binding; saturation assay: constant CXCR4-ACM concentration, varying 125I-SDF, with and without 0.5 µM unlabeled SDF; 96-well plate, filtration; GraphPad Prism
Conditions: both partners purified

T1 sequence (P48061 22-89): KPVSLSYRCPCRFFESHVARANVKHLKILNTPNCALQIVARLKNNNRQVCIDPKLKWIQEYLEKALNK

Kd: 8.4 nM
B1: CXCR4 embedded in polymersome membranes (CXCR4-ACMs) (receptor, UniProt P61073 1-352, looked up)
chain: MEGISIYTSDNYTEEMGSGDYDSMKEPCFREENANFNKIFLPTIYSIIFLTGIVGNGLVILVMGYQKKLRSMTDKYRLHLSVADLLFVITLPFWAVDAVANWYFGNFLCKAVHVIYTVNLYSSVLILAFISLDRYLAIVHATNSQRPRKLLAEKVVYVGVWIPALLLTIPDFIFANVSEADDRYICDRFYPNDLWVVVFQFQHIMVGLILPGIVILSCYCIIISKLSHSKGHQKRKALKTTVILILAFFACWLPYYIGISIDSFILLEIIKQGCEFENTVHKWISITEALAFFHCCLNPILYAFLGAKFKTSAQHALTSVSRGSSLKILSKGKRGGHSSVSTESESSSFHSS
notes: Receptor sits in polybutadiene-b-poly(ethylene oxide) polymersome membrane with 1% DSPE-PEG-biotin; The introduction speaks in general of 'native, full-length membrane proteins' for this approach; also called C4-ACMs; native CXCR4
